# ± gives the half width of the 95% confidence interval.
# Test: folding stability dG unfold from trypsin proteolysis; higher = more stable
# Outline: (§1)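 Designed mini-proteins with no cysteine and under 80 residues were kept only if AlphaFold2 dimer inter-PAE was above 15. In a PA-tagged cDNA display construct, they were digested with trypsin and chymotrypsin and then sequenced. K50 was inferred by Bayesian fitting of counts, and unfolding free energy was derived per protease or combined against a sequence-predicted unfolded-state K50 and a shared folded-state K50.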
row,Sequence,folding stability dG unfold
1,SAGGNTIMIPMDPPQAREFAKNFIGEFLDQAEENPDRPIEIMVPGPEGRYITIRVDPKEGNLEIEVVPSAGG [r13_216_TrROS],0.231 ± 0.057 kcal/mol
2,SAGGSAGGSAGKKELTFKDKNGKTITVTLEDGEIKEIKIEKPPKPKVVKTEKKYVPKEELSAGGSAGGSAGG [r17_287_TrROS_Hall],0.0355 ± 0.16 kcal/mol
3,SAGGSAGGPNYFVRITIKMRKPNGKPIGEFPIWIPFKSKEQARSLADELAQMPGIEKVDIELVPSAGGSAGG [r6_475_TrROS],2.22 ± 0.025 kcal/mol
4,SAGGSAGGMKVVVKFTVRPRDPDTDEAVPAELVLEFDSLEEALAAAEELAALPEGTEIEIEVLTSAGGSAGG [r6_999_TrMRF],2.2 ± 0.058 kcal/mol
5,GPEVLVETFVDPETGRVVVRVYFPEPDRLVLAVGERGGDGVRVLVVEYEADPLEPRFAEFEFPALPEGFDES [r1_404_TrMRF],2.52 ± 0.14 kcal/mol
6,SAGGSAGGSAMSEEEKKKKKPKLEIKVKVEFTVDENGTVRAKVTFEDGTTLEVEIKLPPELLSAGGSAGGSA [r18_192_TrROS_Hall],1.92 ± 0.094 kcal/mol
7,SAGGSAGGSAGGKLPPGDIIPMEFEAEFPVYKRDPEGGDWEPIGPMRIDFTIIIRLPPGSAGGSAGGSAGGS [r10_1115_TrROS],2.5 ± 0.22 kcal/mol
8,SAGPVTIPIFYRVPPGEPMTPEAKEFAIELAKYIARLFPPGYKIEIDSIEWERHPNYYYFRVTIEIEPPSAG [r5_121_TrROS],3.64 ± 0.16 kcal/mol
9,SAGMYTITISRLPGGEYEVRVTDAANGEEVARRPVASEEEARAEAERIAAEIAEADPDVEVRVSESDAESAG [r5_383_JUSTAS],2.51 ± 0.066 kcal/mol
10,SAGGSAGGSAGGSMELIPTPEDTVTVVETTPVAPTPNGTPVPATVTTTTLPKEEVEAAASAGGSAGGSAGGS [r4_238_JUSTAS],2.71 ± 0.057 kcal/mol
11,SSLEIPPEVLAEIKKAALEGDDEKVKELLKELGFTKVEIKYEKLDGKVKLTIKVEHPEGPATITFSDELLSA [r9_783_JUSTAS],3.36 ± 0.18 kcal/mol
12,SAGGGLLEELARELGFEAEIEEIPETGILRITLRPEDGSEVEITVKVTRIPGLGEVKLEVLEVKVRPTSAGG [r13_936_TrMRF],3.15 ± 0.16 kcal/mol
13,SAGMVIELKTEEEAKAKAEEIAKKNPEANVTLVVTDPETGVKTVIPVKIESPKPKPEFDKKNGKYKDKGSAG [r5_870_JUSTAS],-0.126 ± 0.2 kcal/mol
14,SLSEEEAKDNPEEANEKMQPPPVPPIPLPVPIRNPDNKQEFPAPFEIRTLPNHLEFRFPGNGKPFPVPIDSA [r9_548_TrROS],2.53 ± 0.24 kcal/mol
15,SAGLNIPPEMTVDELVEFLKSLGVKSYKVEKTEDPESYVVTFEFPDFTVVMTFHPDSVTITVVPKDEPLSAG [r5_899_TrMRF],3.14 ± 0.11 kcal/mol
16,SAGGSAGGSAGMETIRLTFTVPGPDDRYYRVSVEARINPPTGEIEILRVEITPLDNPDAISAGGSAGGSAGG [r11_777_TrMRF],3.09 ± 0.12 kcal/mol
17,SEGSVRLEFTFTLPDGTRLTVEVTVHYDAATGEFHVSVSVRVEPLPDTSRPWEERPVRLPDGTWVSAADLSA [r9_898_TrMRF],2.54 ± 0.071 kcal/mol
18,SAGGVVEVEVPDLSLEEALERVREEYPDVPEFTLTLPSGERVEFRVEGDRVEVVRREPLGPRPPELESAGGS [r8_225_JUSTAS],1.63 ± 0.1 kcal/mol
19,SAGGMEKVKVRVFFIDEETGEPREVEVEATLEELRELIEKIPDKGRVLVKLELPDEERIVTLEELKERSAGG [r13_254_TrMRF],1.79 ± 0.065 kcal/mol
20,SPGVTVEISTSTLPNGTRVTTLTTTTFDPQTGTTSTTTTVTVSPAPSSASPLRRELVTRPDGTLVPAALLSA [r9_898_JUSTAS],-0.234 ± 0.13 kcal/mol
21,SAGGSAMTVTLIVGDKPITIPLTASLSDIKAALEEHPDVPVYIILPNGKRIEMKVSDLIKMMEKAGSAGGSA [r15_36_TrMRF],2.99 ± 0.058 kcal/mol

row,Sequence,folding stability dG unfold
1,SAGGSAGGSAKPQKVELELFPNGELIIRLPETGARIRLKVEVFKDASGNPFFKLEIVDIDPSAGGSAGGSAG [r3_76_TrMRF],2.48 ± 0.14 kcal/mol
2,SAGGSAGGKLSIPIHIPGLTPEEARKIVKYFAAAGIPPDNVTIEVQPVPPVPPMTPEEMEKHNKSAGGSAGG [r6_246_TrROS],-0.288 ± 0.24 kcal/mol
3,SAGGSAGGSEKPPVKTITLVLKVDDAEEAAKALAEELGVEITRIEVTRDENGKVYVRITIRLPSAGGSAGGS [r12_359_TrROS_Hall],3.6 ± 0.1 kcal/mol
4,SAGGSAGGSAGWFTIMFKADSPEKVEEIVDELAQENGLEVEIERNPGEPGYIMITIKPPPSAGGSAGGSAGG [r11_797_TrROS],1.47 ± 0.054 kcal/mol
5,SAGGSAGGSAMVVRGEDLTPEALLELLEENPEEVTLETKDHIATVKFNPETGELEITSVDDISAGGSAGGSA [r18_75_TrMRF],1.38 ± 0.12 kcal/mol
6,SAGMKIKIIKLDKNLEELSEEELKKLLEELAKKGLVEKKKDGKKVIPLTVIDKKTKKTYTFYIEIEKPPSAG [r5_243_TrROS_Hall],1.36 ± 0.041 kcal/mol
7,SAGGEKTLTVEYNPEDDYLTFTLTLTRPGYDPVTGKPREYKVTLTFTVPLNEATPEHVKLALEIYEKDSAGG [r13_980_TrMRF],2.88 ± 0.13 kcal/mol
8,SAEVRPDEVLRIEVRLRVGDVEFTAEAEIPAGLSEEEIREAVERIREEAERLAERLRRLPPLRPPEELLSAG [r14_70_TrMRF],1.63 ± 0.086 kcal/mol
9,SAGGSAGGSAGGSYTVSEIPEEGLVLKTLPNGVVTRYKVSPDGSLEEIATFEPGNGVLIKSAGGSAGGSAGG [r7_659_JUSTAS],-0.0116 ± 0.3 kcal/mol
10,SAGGSAIWIPADEIRELAKEPGLEVEKEPQPDGMLHFTIKNPKNGKRITIVVWDPENGWWHIMPIPSAGGSA [r15_442_TrROS],0.947 ± 0.019 kcal/mol
11,SAGGSAGGSEKVEIEREFKLPDPNGKPFRFTVEIEVEPRNDGLKIEITEVEGPWMRDAIKKLLSAGGSAGGS [r12_743_TrROS],0.696 ± 0.14 kcal/mol
12,SAGGKKKPKIRIKVEIDGKTVEVEVESPEELVEALKELGFEVEVVEVTEKTVVIKLKDGKLIRIEKESAGGS [r8_365_TrROS_Hall],1.91 ± 0.072 kcal/mol
13,SAGGSAGGSAGGNVRLTVTLDENGRLRVTAEVEVTNENGEKKTYRLTLTLKLKPGQTLTSAGGSAGGSAGGS [r10_763_TrROS_Hall],2.9 ± 0.054 kcal/mol
14,SAGGSAGGSASSIVLTKTPGSYVLTEVELSSSTYPPSPPDYGSVVTVTPLEVVEREPGVPLPSAGGSAGGSA [r18_255_JUSTAS],0.0789 ± 0.12 kcal/mol
15,SAGGSFVVIEPTADGVRIVLEDDGALREVPVSPEVAAALAANPDLEGVVRSLLPEGHPIERIAAVPGSAGGS [r16_567_TrMRF],-0.755 ± 0.24 kcal/mol
16,SAGGSAGGSAGGGPEDRVVPLFFEFDLPEDVVLEVPSDADVFVFRLPDRTLMVLLVDERESAGGSAGGSAGG [r7_584_TrMRF],1.82 ± 0.051 kcal/mol
17,SAGAMLTLELTVEADSPEEAIERAKEIAKELIKKEYPELSKNTKIEKITAEPTPGPEVKVTITIKIDPGSAG [r5_320_JUSTAS],4.42 ± 0.17 kcal/mol
18,SAGGSAGGSAKMEIVLEVDTPEEAKEAAKKLAEELKKKGYKVKVEVKKLKNGKYYVKITVDSAGGSAGGSAG [r3_211_TrROS_Hall],3.33 ± 0.23 kcal/mol
19,SAGGSAGGSAGPPNQRHEYEIKLTIYDPDNGKKFTIKIPMESPWDMPNFMRKLADNGYIKSAGGSAGGSAGG [r11_668_TrROS],0.557 ± 0.14 kcal/mol
20,SPWYVRIKLEYPGKEKRIMIPPDESISQIKDNIRDFAREMGLEEPPLDDFKIEDVEVFPDENGMVSIEIKSA [r9_1053_TrROS],0.606 ± 0.32 kcal/mol
21,SAGGSAGGGIEEELRRVLPEDATVTIEEVPERPLLVVTVTFPERAETRTFTFSPESPEKLIEALSAGGSAGG [r6_612_JUSTAS],0.82 ± 0.049 kcal/mol

# Test: folding stability dG unfold from chymotrypsin proteolysis; higher = more stable
# Outline: as §1
row,Sequence,folding stability dG unfold
1,SAGGNTIMIPMDPPQAREFAKNFIGEFLDQAEENPDRPIEIMVPGPEGRYITIRVDPKEGNLEIEVVPSAGG [r13_216_TrROS],-0.125 ± 0.17 kcal/mol
2,SAGGSAGGSAGKKELTFKDKNGKTITVTLEDGEIKEIKIEKPPKPKVVKTEKKYVPKEELSAGGSAGGSAGG [r17_287_TrROS_Hall],0.0761 ± 0.069 kcal/mol
3,SAGGSAGGPNYFVRITIKMRKPNGKPIGEFPIWIPFKSKEQARSLADELAQMPGIEKVDIELVPSAGGSAGG [r6_475_TrROS],2.68 ± 0.031 kcal/mol
4,SAGGSAGGMKVVVKFTVRPRDPDTDEAVPAELVLEFDSLEEALAAAEELAALPEGTEIEIEVLTSAGGSAGG [r6_999_TrMRF],1.76 ± 0.031 kcal/mol
5,GPEVLVETFVDPETGRVVVRVYFPEPDRLVLAVGERGGDGVRVLVVEYEADPLEPRFAEFEFPALPEGFDES [r1_404_TrMRF],2.59 ± 0.054 kcal/mol
6,SAGGSAGGSAMSEEEKKKKKPKLEIKVKVEFTVDENGTVRAKVTFEDGTTLEVEIKLPPELLSAGGSAGGSA [r18_192_TrROS_Hall],1.49 ± 0.059 kcal/mol
7,SAGGSAGGSAGGKLPPGDIIPMEFEAEFPVYKRDPEGGDWEPIGPMRIDFTIIIRLPPGSAGGSAGGSAGGS [r10_1115_TrROS],2.91 ± 0.14 kcal/mol
8,SAGPVTIPIFYRVPPGEPMTPEAKEFAIELAKYIARLFPPGYKIEIDSIEWERHPNYYYFRVTIEIEPPSAG [r5_121_TrROS],3.8 ± 0.085 kcal/mol
9,SAGMYTITISRLPGGEYEVRVTDAANGEEVARRPVASEEEARAEAERIAAEIAEADPDVEVRVSESDAESAG [r5_383_JUSTAS],2.959 ± 0.023 kcal/mol
10,SAGGSAGGSAGGSMELIPTPEDTVTVVETTPVAPTPNGTPVPATVTTTTLPKEEVEAAASAGGSAGGSAGGS [r4_238_JUSTAS],1.53 ± 0.03 kcal/mol
11,SSLEIPPEVLAEIKKAALEGDDEKVKELLKELGFTKVEIKYEKLDGKVKLTIKVEHPEGPATITFSDELLSA [r9_783_JUSTAS],4.15 ± 0.15 kcal/mol
12,SAGGGLLEELARELGFEAEIEEIPETGILRITLRPEDGSEVEITVKVTRIPGLGEVKLEVLEVKVRPTSAGG [r13_936_TrMRF],3.31 ± 0.052 kcal/mol
13,SAGMVIELKTEEEAKAKAEEIAKKNPEANVTLVVTDPETGVKTVIPVKIESPKPKPEFDKKNGKYKDKGSAG [r5_870_JUSTAS],-0.455 ± 0.45 kcal/mol
14,SLSEEEAKDNPEEANEKMQPPPVPPIPLPVPIRNPDNKQEFPAPFEIRTLPNHLEFRFPGNGKPFPVPIDSA [r9_548_TrROS],2.87 ± 0.11 kcal/mol
15,SAGLNIPPEMTVDELVEFLKSLGVKSYKVEKTEDPESYVVTFEFPDFTVVMTFHPDSVTITVVPKDEPLSAG [r5_899_TrMRF],3.52 ± 0.061 kcal/mol
16,SAGGSAGGSAGMETIRLTFTVPGPDDRYYRVSVEARINPPTGEIEILRVEITPLDNPDAISAGGSAGGSAGG [r11_777_TrMRF],3.93 ± 0.035 kcal/mol
17,SEGSVRLEFTFTLPDGTRLTVEVTVHYDAATGEFHVSVSVRVEPLPDTSRPWEERPVRLPDGTWVSAADLSA [r9_898_TrMRF],2.28 ± 0.1 kcal/mol
18,SAGGVVEVEVPDLSLEEALERVREEYPDVPEFTLTLPSGERVEFRVEGDRVEVVRREPLGPRPPELESAGGS [r8_225_JUSTAS],1.51 ± 0.029 kcal/mol
19,SAGGMEKVKVRVFFIDEETGEPREVEVEATLEELRELIEKIPDKGRVLVKLELPDEERIVTLEELKERSAGG [r13_254_TrMRF],3.23 ± 0.1 kcal/mol
20,SPGVTVEISTSTLPNGTRVTTLTTTTFDPQTGTTSTTTTVTVSPAPSSASPLRRELVTRPDGTLVPAALLSA [r9_898_JUSTAS],0.235 ± 0.16 kcal/mol
21,SAGGSAMTVTLIVGDKPITIPLTASLSDIKAALEEHPDVPVYIILPNGKRIEMKVSDLIKMMEKAGSAGGSA [r15_36_TrMRF],3.35 ± 0.099 kcal/mol
